The source of these data is US20160355587A1 (CYTOMX THERAPEUTICS, published 2016).

In assay [1] the target is T1, human CD166 protein (human, UniProt Q13740 28-526, limits assumed).
T1 construct: Isolated human CD166 protein coated on ELISA plates; also called ALCAM
T1 sequence (looked up): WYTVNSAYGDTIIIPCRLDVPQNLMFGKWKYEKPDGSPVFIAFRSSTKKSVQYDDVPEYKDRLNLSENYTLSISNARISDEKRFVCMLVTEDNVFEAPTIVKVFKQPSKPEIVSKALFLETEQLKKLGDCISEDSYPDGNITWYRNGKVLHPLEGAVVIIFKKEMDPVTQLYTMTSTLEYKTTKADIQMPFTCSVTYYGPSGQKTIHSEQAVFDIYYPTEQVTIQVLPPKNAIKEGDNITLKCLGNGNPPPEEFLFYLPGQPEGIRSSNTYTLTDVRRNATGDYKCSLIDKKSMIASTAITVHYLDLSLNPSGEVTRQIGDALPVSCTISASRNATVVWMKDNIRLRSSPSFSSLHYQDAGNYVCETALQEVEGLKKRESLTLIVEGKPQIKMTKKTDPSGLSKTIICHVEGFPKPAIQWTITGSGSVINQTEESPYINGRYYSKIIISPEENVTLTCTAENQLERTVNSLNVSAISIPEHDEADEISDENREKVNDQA
Put plainly: ELISA, human CD166 protein coated; apparent Kd. In general terms: ELISA stands for enzyme-linked immunosorbent assay.

In assay [2] the target is T1, human CD166 protein. Put plainly: ELISA; relative to parental CD166 M9 vk1/HcB.
The target in assay [3] is T1, human CD166 protein. Put plainly: ELISA, human CD166 protein coated, anti-human FAB-peroxidase.

B1: CD166-16522-2001 (antibody)
chain 1: QITLKESGPTLVKPTQTLTLTCTFSGFSLSTYGMGVGWIRQPPGKALEWLANIWWSEDKHYSPSLKSRLTITKDTSKNQVVLTMTNMDPVDTATYYCVQIDYGNDYAFTYWGQGTLVTVSS
chain 2: QGQSGQGLEGWCLHPLCLWGAGGGGSSGGSISSGLLSGRSDNHGGGSDIVMTQSPLSLPVTPGEPASISCRSSKSLLHSNGITYLYWYLQKPGQSPQLLIYQMSNLASGVPDRFSGSGSGTDFTLKISRVEAEDVGVYYCAQNLELPYTFGQGTKLEIK
Consider B1, for which the Kd in the assay with human CD166 protein [1] stood at 424 nM. Besides, the “Fold Increase in Kd” value with human CD166 protein [2] worked out at 95 fold.

B2: CD166-16522.15-2001 (antibody)
chain 1: QITLKESGPTLVKPTQTLTLTCTFSGFSLSTYGMGVGWIRQPPGKALEWLANIWWSEDKHYSPSLKSRLTITKDTSKNQVVLTMTNMDPVDTATYYCVQIDYGNDYAFTYWGQGTLVTVSS
chain 2: QGQSGQGLEGWCAHPLCLWGAGGGGSSGGSISSGLLSGRSDNHGGGSDIVMTQSPLSLPVTPGEPASISCRSSKSLLHSNGITYLYWYLQKPGQSPQLLIYQMSNLASGVPDRFSGSGSGTDFTLKISRVEAEDVGVYYCAQNLELPYTFGQGTKLEIK
Take B2: the Kd in the assay with human CD166 protein [1] worked out at 448 nM. Besides, the “Fold Increase in Kd” value with human CD166 protein [2] worked out at 101 fold.

B3: CD166-7614.9-2001 (antibody)
chain 1: QITLKESGPTLVKPTQTLTLTCTFSGFSLSTYGMGVGWIRQPPGKALEWLANIWWSEDKHYSPSLKSRLTITKDTSKNQVVLTMTNMDPVDTATYYCVQIDYGNDYAFTYWGQGTLVTVSS
chain 2: QGQSGQGLCHPLVLSAAESCSSGGGSSGGSISSGLLSGRSDNHGGGSDIVMTQSPLSLPVTPGEPASISCRSSKSLLHSNGITYLYWYLQKPGQSPQLLIYQMSNLASGVPDRFSGSGSGTDFTLKISRVEAEDVGVYYCAQNLELPYTFGQGTKLEIK
For B3, in the assay with human CD166 protein [1], the Kd was 534 nM. In addition, the “Fold Increase in Kd” value with human CD166 protein [2] is 120 fold.

B4: CD166-16522.16-2001 (antibody)
chain 1: QITLKESGPTLVKPTQTLTLTCTFSGFSLSTYGMGVGWIRQPPGKALEWLANIWWSEDKHYSPSLKSRLTITKDTSKNQVVLTMTNMDPVDTATYYCVQIDYGNDYAFTYWGQGTLVTVSS
chain 2: QGQSGQGLEGWCLAPLCLWGAGGGGSSGGSISSGLLSGRSDNHGGGSDIVMTQSPLSLPVTPGEPASISCRSSKSLLHSNGITYLYWYLQKPGQSPQLLIYQMSNLASGVPDRFSGSGSGTDFTLKISRVEAEDVGVYYCAQNLELPYTFGQGTKLEIK
With B4, the Kd with human CD166 protein [1] turned out to be 47.4 nM. The “Fold Increase in Kd” value in the assay with human CD166 protein [2] came to 11 fold.

B5: CD166-7614.7-2001 (antibody)
chain 1: QITLKESGPTLVKPTQTLTLTCTFSGFSLSTYGMGVGWIRQPPGKALEWLANIWWSEDKHYSPSLKSRLTITKDTSKNQVVLTMTNMDPVDTATYYCVQIDYGNDYAFTYWGQGTLVTVSS
chain 2: QGQSGQGLCHPLALSAWESCSSGGGSSGGSISSGLLSGRSDNHGGGSDIVMTQSPLSLPVTPGEPASISCRSSKSLLHSNGITYLYWYLQKPGQSPQLLIYQMSNLASGVPDRFSGSGSGTDFTLKISRVEAEDVGVYYCAQNLELPYTFGQGTKLEIK
In the case of B5, the Kd with human CD166 protein [1] came to 619 nM. Also, in the assay with human CD166 protein [2], the “Fold Increase in Kd” value turned out to be 139 fold.

B6: CD166-7614.10-2001 (antibody)
chain 1: QITLKESGPTLVKPTQTLTLTCTFSGFSLSTYGMGVGWIRQPPGKALEWLANIWWSEDKHYSPSLKSRLTITKDTSKNQVVLTMTNMDPVDTATYYCVQIDYGNDYAFTYWGQGTLVTVSS
chain 2: QGQSGQGLCHPLVLSAWASCSSGGGSSGGSISSGLLSGRSDNHGGGSDIVMTQSPLSLPVTPGEPASISCRSSKSLLHSNGITYLYWYLQKPGQSPQLLIYQMSNLASGVPDRFSGSGSGTDFTLKISRVEAEDVGVYYCAQNLELPYTFGQGTKLEIK
With B6, the Kd in the assay with human CD166 protein [1] is 685 nM. Moreover, the “Fold Increase in Kd” value with human CD166 protein [2] amounted to 154 fold.

B7: CD166-7614.13-2001 (antibody)
chain 1: QITLKESGPTLVKPTQTLTLTCTFSGFSLSTYGMGVGWIRQPPGKALEWLANIWWSEDKHYSPSLKSRLTITKDTSKNQVVLTMTNMDPVDTATYYCVQIDYGNDYAFTYWGQGTLVTVSS
chain 2: QGQSGQGHPLGGGSSGGSISSGLLSGRSDNHGGGSDIVMTQSPLSLPVTPGEPASISCRSSKSLLHSNGITYLYWYLQKPGQSPQLLIYQMSNLASGVPDRFSGSGSGTDFTLKISRVEAEDVGVYYCAQNLELPYTFGQGTKLEIK
Regarding B7, the Kd in the assay with human CD166 protein [1] is 77.7 nM. In addition, the “Fold Increase in Kd” value in the assay with human CD166 protein [2] is 18 fold.

B8: CD166-7614.12-2001 (antibody)
chain 1: QITLKESGPTLVKPTQTLTLTCTFSGFSLSTYGMGVGWIRQPPGKALEWLANIWWSEDKHYSPSLKSRLTITKDTSKNQVVLTMTNMDPVDTATYYCVQIDYGNDYAFTYWGQGTLVTVSS
chain 2: QGQSGQGHPLVLGGGSSGGSISSGLLSGRSDNHGGGSDIVMTQSPLSLPVTPGEPASISCRSSKSLLHSNGITYLYWYLQKPGQSPQLLIYQMSNLASGVPDRFSGSGSGTDFTLKISRVEAEDVGVYYCAQNLELPYTFGQGTKLEIK
For B8, the Kd with human CD166 protein [1] is 332 nM. The “Fold Increase in Kd” value in the assay with human CD166 protein [2] stood at 75 fold.

B9: CD166-7614.11-2001 (antibody)
chain 1: QITLKESGPTLVKPTQTLTLTCTFSGFSLSTYGMGVGWIRQPPGKALEWLANIWWSEDKHYSPSLKSRLTITKDTSKNQVVLTMTNMDPVDTATYYCVQIDYGNDYAFTYWGQGTLVTVSS
chain 2: QGQSGQGCHPLVLSAWESCGGGSSGGSISSGLLSGRSDNHGGGSDIVMTQSPLSLPVTPGEPASISCRSSKSLLHSNGITYLYWYLQKPGQSPQLLIYQMSNLASGVPDRFSGSGSGTDFTLKISRVEAEDVGVYYCAQNLELPYTFGQGTKLEIK
For the molecule B9, the Kd in the assay with human CD166 protein [1] came out at 544 nM. Besides, the “Fold Increase in Kd” value with human CD166 protein [2] stood at 123 fold.

B10: CD166-7614.5-2001 (antibody)
chain 1: QITLKESGPTLVKPTQTLTLTCTFSGFSLSTYGMGVGWIRQPPGKALEWLANIWWSEDKHYSPSLKSRLTITKDTSKNQVVLTMTNMDPVDTATYYCVQIDYGNDYAFTYWGQGTLVTVSS
chain 2: QGQSGQGLCHALVLSAWESCSSGGGSSGGSISSGLLSGRSDNHGGGSDIVMTQSPLSLPVTPGEPASISCRSSKSLLHSNGITYLYWYLQKPGQSPQLLIYQMSNLASGVPDRFSGSGSGTDFTLKISRVEAEDVGVYYCAQNLELPYTFGQGTKLEIK
Take B10: the Kd with human CD166 protein [1] was found to be 495 nM. In the assay with human CD166 protein [2], the “Fold Increase in Kd” value was determined as 112 fold.

B11: CD166-16522.14-2001 (antibody)
chain 1: QITLKESGPTLVKPTQTLTLTCTFSGFSLSTYGMGVGWIRQPPGKALEWLANIWWSEDKHYSPSLKSRLTITKDTSKNQVVLTMTNMDPVDTATYYCVQIDYGNDYAFTYWGQGTLVTVSS
chain 2: QGQSGQGLEGACLHPLCLWGAGGGGSSGGSISSGLLSGRSDNHGGGSDIVMTQSPLSLPVTPGEPASISCRSSKSLLHSNGITYLYWYLQKPGQSPQLLIYQMSNLASGVPDRFSGSGSGTDFTLKISRVEAEDVGVYYCAQNLELPYTFGQGTKLEIK
Consider B11, for which, in the assay with human CD166 protein [1], the Kd is 422 nM. Moreover, in the assay with human CD166 protein [2], the “Fold Increase in Kd” value is 95 fold.

B12: CD166-16522.17-2001 (antibody)
chain 1: QITLKESGPTLVKPTQTLTLTCTFSGFSLSTYGMGVGWIRQPPGKALEWLANIWWSEDKHYSPSLKSRLTITKDTSKNQVVLTMTNMDPVDTATYYCVQIDYGNDYAFTYWGQGTLVTVSS
chain 2: QGQSGQGLEGWCLHALCLWGAGGGGSSGGSISSGLLSGRSDNHGGGSDIVMTQSPLSLPVTPGEPASISCRSSKSLLHSNGITYLYWYLQKPGQSPQLLIYQMSNLASGVPDRFSGSGSGTDFTLKISRVEAEDVGVYYCAQNLELPYTFGQGTKLEIK
As for B12, the Kd with human CD166 protein [1] was 61.6 nM. The “Fold Increase in Kd” value with human CD166 protein [2] was determined as 14 fold.

B13: CD166-M9_vK3a/HcC (antibody, V domains shown)
VH: QITLKESGPTLVKPTQTLTLTCTFSGFSLSTYGMGVGWIRQPPGKALEWLANIWWSEDKHYSPSLKSRLTITKDTSKNQVVLTITNVDPVDTATYYCVQIDYGNDYAFTYWGQGTLVTVSS
VL: DIVMTQSPLSLPVTPGEPASISCRSSQSLLHSNGITYLYWYLQKPGQSPQLLIYQMSNRASGVPDRFSGSGSGTDFTLKISRVEAEDVGVYYCAQNLELPYTFGQGTKLEIK
notes: Humanized M9
With B13, in the assay with human CD166 protein [3], the binding result is “binds”.

B14: CD166-M9_vK2/HcC (antibody, V domains shown)
VH: QITLKESGPTLVKPTQTLTLTCTFSGFSLSTYGMGVGWIRQPPGKALEWLANIWWSEDKHYSPSLKSRLTITKDTSKNQVVLTITNVDPVDTATYYCVQIDYGNDYAFTYWGQGTLVTVSS
VL: DIVMTQSPLSLPVTPGEPASISCRSSKSLLHSNGITYLYWYLQKPGQSPQLLIYQMSNLASGVPDRFSSSGSGTDFTLKISRVEAEDVGVYYCAQNLELPYTFGQGTKLEIK
notes: Humanized M9
Regarding B14, the binding result with human CD166 protein [3] was “binds”.

B15: CD166-M9_vK3b/HcC (antibody, V domains shown)
VH: QITLKESGPTLVKPTQTLTLTCTFSGFSLSTYGMGVGWIRQPPGKALEWLANIWWSEDKHYSPSLKSRLTITKDTSKNQVVLTITNVDPVDTATYYCVQIDYGNDYAFTYWGQGTLVTVSS
VL: DIVMTQSPLSLPVTPGEPASISCRSSQSLLHSNGITYLYWYLQKPGQSPQLLIYQMSNRASGVPDRFSSSGSGTDFTLKISRVEAEDVGVYYCAQNLELPYTFGQGTKLEIK
notes: Humanized M9
As to B15, the binding result with human CD166 protein [3] is recorded as “binds”.

B16: CD166-M9_vK3b/HcB (antibody, V domains shown)
VH: QITLKESGPTLVKPTQTLTLTCTFSGFSLSTYGMGVGWIRQPPGKALEWLANIWWSEDKHYSPSLKSRLTITKDTSKNQVVLTMTNMDPVDTATYYCVQIDYGNDYAFTYWGQGTLVTVSS
VL: DIVMTQSPLSLPVTPGEPASISCRSSQSLLHSNGITYLYWYLQKPGQSPQLLIYQMSNRASGVPDRFSSSGSGTDFTLKISRVEAEDVGVYYCAQNLELPYTFGQGTKLEIK
notes: Humanized M9
For the molecule B16, the binding result with human CD166 protein [3] is on record as “binds”.
